B1: DVD3759: DVD-Ig: VD1 mIgM (B7.6), SL linker, VD2 DNA(PA4); heavy SEQ ID NO 64, light 65 (antibody)
heavy: QVQLKESGPGLVKPSLTLSLTCTVSGFSLNGYGVIWVRQPPGKGLEWMGVIWGNGNTNYNSTLKSRLSISRDTSKSQVFLKMNNLQTEDTAMYFCARSENYYSSPGYFAYWGQGTLVTVSSASTKGPEVQLVESGGGLVKPGGSLKLSCVASGFTFSTYAMSWVRQTPTKRLEWVATISRGGVSTYYPDTVKGRFTISRDNAKNTLYLQMSSLRSEDTAMYYCARPPTIVTTWFAYWGQGTLVTVSS
light: NTVMTQSPTSMFISVGDRVTMNCKASQNVGSDVDWYQQKTGQSPKLLISGTSNRYTGVPDRFTGSGSGTDFTLTISNMQAEDLAVYYCLQYNYNPTFGAGTKLELKRTVAAPSVFIFPPDVVMTQTPLSLPVSLGDQASISCRSSQSLVHSNGNTYLHWYLQKPGQSPKLLIYKVSNRFSGVPDRFSGSGSGTDFTLKISRVEAEDLGAYFCSQSTHVPYTFGGPTRLEIKR
B2: DVD3754: DVD-Ig: VD1 DNA(PA4), SL linker, VD2 mIgM (B7.6); heavy SEQ ID NO 54, light 55 (antibody)
heavy: EVQLVESGGGLVKPGGSLKLSCVASGFTFSTYAMSWVRQTPTKRLEWVATISRGGVSTYYPDTVKGRFTISRDNAKNTLYLQMSSLRSEDTAMYYCARPPTIVTTWFAYWGQGTLVTVSSASTKGPQVQLKESGPGLVKPSLTLSLTCTVSGFSLNGYGVIWVRQPPGKGLEWMGVIWGNGNTNYNSTLKSRLSISRDTSKSQVFLKMNNLQTEDTAMYFCARSENYYSSPGYFAYWGQGTLVTVSS
light: DVVMTQTPLSLPVSLGDQASISCRSSQSLVHSNGNTYLHWYLQKPGQSPKLLIYKVSNRFSGVPDRFSGSGSGTDFTLKISRVEAEDLGAYFCSQSTHVPYTFGGPTRLEIKRTVAAPSVFIFPPNTVMTQSPTSMFISVGDRVTMNCKASQNVGSDVDWYQQKTGQSPKLLISGTSNRYTGVPDRFTGSGSGTDFTLTISNMQAEDLAVYYCLQYNYNPTFGAGTKLELKR

How the values were obtained:
mIgM = biological target: T1, mIgM (Mus musculus, UniProt P01872); assay: IgM binding ELISA (mouse IgM); details: for IgM Binding EC50: mIgM-coated ELISA, half-log dilution 10 μg/ml-0.01 μg/ml
T1 sequence (P01872 1-454): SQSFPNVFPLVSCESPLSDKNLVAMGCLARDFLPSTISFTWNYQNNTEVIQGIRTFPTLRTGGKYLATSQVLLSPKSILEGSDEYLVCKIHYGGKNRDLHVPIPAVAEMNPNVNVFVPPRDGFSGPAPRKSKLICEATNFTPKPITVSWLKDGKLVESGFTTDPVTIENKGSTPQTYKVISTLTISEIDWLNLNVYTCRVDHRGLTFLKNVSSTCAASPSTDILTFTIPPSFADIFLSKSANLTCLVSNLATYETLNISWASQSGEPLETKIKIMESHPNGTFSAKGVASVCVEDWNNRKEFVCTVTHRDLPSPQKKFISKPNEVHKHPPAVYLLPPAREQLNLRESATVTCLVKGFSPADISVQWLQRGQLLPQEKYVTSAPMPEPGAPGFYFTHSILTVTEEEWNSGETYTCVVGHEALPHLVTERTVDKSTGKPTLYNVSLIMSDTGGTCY
Protocol: Reactivity of the DVD-Ig proteins with mIgM was determined by enzyme-linked immunosorbent assay (ELISA). Briefly, each well of an Ultra Cruz 96 well microtiter plate (Santa Cruz Biotechnology, Dallas, Tex.) was coated with mIgM at a concentration of 1 μg/ml in 100 μl of PBS. The plate was covered in plastic wrap and incubated overnight at 4° C. Each well of the plate was then washed 3× with 300 μl of PBST. After the final wash, 200 μl of blocking buffer (1% BSA in PBS) was added to each well and the plate incubated at RT for 2 hours. The plate was then washed as above. Rows B-H of the microtiter plate were filled with 100 μl of dilution buffer (1% BSA in PBST). The DVD-Ig proteins were then diluted to […] in dilution buffer and 147 μl of a DVD-Ig protein was added in duplicate to row A of a 96 well plate. For a ½ log dilution, 47 μl was transferred from row A to row B. The pipette tips were replaced with clean tips and 47 μl from row B was transferred to row C. The serial transfers were repeated as above until row G. To assess the binding of the secondary detection reagent to the coated IgM, the final transfer 47 μl was only transferred from G1-G10 to H1-H10 and wells H11 and H12 were left containing 100 μl of dilution buffer. To maintain a 100 μl assay volume, 47 μl was removed from wells H1-H10 and G11-G12 and discarded. After the serial dilution was completed, the plate was incubated for 1-2 hours at RT. The plate was washed as above and then 100 μl of horseradish peroxidase conjugated goat α-hIgG Fc specific, diluted 1:3,000 in dilution buffer, was added to each well. The plate was incubated for 1 hour at RT and then washed 4× as above. The plate was developed by adding 100 μl of 3′,3′,5′,5′-Tetramethylbenzidine (TMB) substrate solution to each well and incubating the plate in the dark for 10-15 minutes. The enzymatic reaction was stopped by adding 100 μl of 1M H2SO4 to each well. The plate was read at 450 nm on an EnVision 2102 multilabel reader (Perkin Elmer, Waltham, Mass.).
DVD-Ig proteins DVD3751-DVD3760 were characterized by IgM binding assay at half-log dilution starting at 10 μg/ml-0.01 μg/ml according to the method of Example 2.5.
IgM binding ELISA: Titrations of the DVD-Ig™ proteins (10 μg/ml to 0.01 μg/ml) were added to ELISA plates coated with murine IgM. Bound antibody was detected with biotinylated anti-human IgG and streptavidin-HRP. EC50 were calculated from the titration curve using Prism6.

AM14 WT B cells = assay: [3H]thymidine incorporation, BCR/TLR9 stimulation of AM14 WT B cells; type: cell-based, mouse; set-up: key to 3H incorporation AM14 WT, relative result: (X)-(XXX) indicates relative results; (XX): (X)-(XXX) indicates relative results; (X)-(XXX) indicates relative results; level of 3H incorporation / 3H incorporation AM14 WT: dose or concentration left out as unconfirmed; details: for 3H incorporation AM14 WT: 24 hours, then 6 hours pulse
Excerpt: (§1) The AM14 B cell receptor (BCR) transgenic mouse has been described previously (Sweet et al. (2010) Autoimmun 43(8): 607-18). Briefly, AM14 is a BCR comprising the AM14 heavy chain and the Vk8 light chain that recognizes murine IgG2a (mIgG2a) of the “a” allotype. Between 95-98% of B cells in a mouse positive for the AM14 heavy chain and Vk8 light chain express the AM14 BCR. To generate AM14 B cells that are deficient in TLR9, TLR7 or FcγRIIB, the AM14 and Vk8 genes were bred to the appropriate knock out mice.
(§2) Primary murine B cells were purified by positive selection using BD Imag™ CD45R/B220 magnetic particles (BD Biosciences, San Jose, Calif.). Briefly, B cells were cultured in RPMI containing, pencillin-streptomycin, β-mercaptoethanol, and 5% heat-inactivated fetal calf serum (FCS) in 96 well flat bottom plates at a density of 4×10^5 cells/well. For stimulation through the BCR and TLR9, B cells were treated with a titration of 0.3 μg/ml-0.03 μg/ml of PA4 or 5 μg/ml to 0.15 μg/ml of a DVD-Ig protein (DVD3751, DVD3752, DVD3754, DVD3755, DVD3759 and DVD3760), unless otherwise noted. Cells were also treated with 1 μg/ml 1826, an experimental ligand for TLR9, as a control. After 24 hours, the cells were pulsed for 6 hours with [3H]thymidine (Perkin Elmer, Waltham Mass.). Incorporation of [3H]thymidine was quantified via a liquid scintillation beta counter (Trilux 1450 MicroBeta, PerkinElmer) according to standard methods.
(§3) DVD-Ig proteins DVD3751-DVD3760 were characterized by ^3H incorporation at […] according to the method of Example 2.6.

AM14 TLR9−/− B cells = assay: [3H]thymidine incorporation, BCR/TLR9 stimulation of AM14 TLR9-/- B cells; type: cell-based, mouse; details: at 5 mg/ml; 24 hours, then 6 hours pulse
Excerpt: as §1, §2, §3

| Molecule | potency in IgM binding assay (mIgM; among DVD3751-DVD3760) | IgM Binding EC50 (mIgM) [µg/mL] | 3H incorporation AM14 WT, relative result (AM14 WT B cells) | 3H incorporation AM14 WT (AM14 WT B cells) | 3H incorporation AM14 TLR9−/− (AM14 TLR9−/− B cells) | IgM binding by direct binding ELISA (mIgM; Example 6, FIG. 8B) | level of 3H incorporation (AM14 WT B cells; among DVD3751-DVD3760) |
| --- | --- | --- | --- | --- | --- | --- | --- |
| B1 | highest potency | 0.04116 | (XX) | (18554) | (970) | – | – |
| B2 | – | 0.1167 | (XXX) | (35214) | (1597) | intermediate IgM binding affinity | highest level of ^3H incorporation |

From patent publication US20150125397A1, “DUAL SPECIFIC BINDING PROTEINS DIRECTED AGAINST IMMUNE CELL RECEPTORS AND AUTOANTIGENS” (ABBVIE INC., priority 2013, published 2015)
